Changes are numbered by the printed parent chain.
B1: PVRIG-A105-H2 (Fc fusion)
chain: EVQLVESGGGLVQPGGSLRLSCAASGRTFDRHTMTWFRQAPGKEREFVATASRIPGDTYYVDSVKGRFTISRDNAKNSLYLQMNSLRAEDTAVYYCAATSAYCSEVDCYEKGSWYDNWGQGTMVTVSS
notes: VHH-human IgG1 Fc format is stated for the parental VHH antibodies; not restated for the humanized variants; also called A105 VH2; not shown: human IgG1 hinge-CH2-CH3 (Fc)
B2: PVRIG-A105-H3a (Fc fusion)
chain: B1 chain with L79V, C103S, C108S
notes: VHH-human IgG1 Fc format is stated for the parental VHH antibodies; not restated for the humanized variants; also called A105.VH3a; not shown: human IgG1 hinge-CH2-CH3 (Fc)
B3: PVRIG-A105-H3 (Fc fusion)
chain: B1 chain with L79V
notes: VHH-human IgG1 Fc format is stated for the parental VHH antibodies; not restated for the humanized variants; also called A105.VH3; not shown: human IgG1 hinge-CH2-CH3 (Fc)
B4: PVRIG-A105-H5 (Fc fusion)
chain: B1 chain with T122I, M123Q
notes: VHH-human IgG1 Fc format is stated for the parental VHH antibodies; not restated for the humanized variants; also called A105.VH5; not shown: human IgG1 hinge-CH2-CH3 (Fc)
B5: PVRIG-A105-H4 (Fc fusion)
chain: B1 chain with V61S, D62H
notes: VHH-human IgG1 Fc format is stated for the parental VHH antibodies; not restated for the humanized variants; also called A105.VH4; not shown: human IgG1 hinge-CH2-CH3 (Fc)
B6: PVRIG-A105 (Fc fusion)
chain: EVQLVESGGGLVQAGGSLRLSCAASGRTFDRHTMTWFRQAPGKEREFVATASRIPGDTYYSHSVKGRFTISRDNAKNTVYLQLNNLKPEDTAVYYCAATSAYCSEVDCYEKGSWYDNWGQGIQVTVSS
notes: Alpaca VHH expressed as VHH-hinge-CH2-CH3 of human IgG1; not shown: human IgG1 hinge-CH2-CH3 (Fc)
B7: PVRIG-A50-H1 (Fc fusion)
chain: EVQLVESGGGLVQPGGSLRLSCAASGFTFSYYDMSWVRQAPGKGLEWVSTINSNGGRTSYVDSVKGRFTISRDNSKNTLYLQMNSLRAEDTAVYYCVEGDPHNFGLENLSLRDFGSWGQGTMVTVSS
notes: VHH-human IgG1 Fc format is stated for the parental VHH antibodies; not restated for the humanized variants; also called A50.VH1; not shown: human IgG1 hinge-CH2-CH3 (Fc)
B8: PVRIG-A50 (Fc fusion)
chain: B7 chain with S75T, R87K, A88P, M122Q
notes: Alpaca VHH expressed as VHH-hinge-CH2-CH3 of human IgG1 (heavy-chain antibody); also called PVRIG-50; not shown: human IgG1 hinge-CH2-CH3 (Fc)
B9: PVRIG-A50-H1c (Fc fusion)
chain: B7 chain with N54D, S110A
notes: VHH-human IgG1 Fc format is stated for the parental VHH antibodies; not restated for the humanized variants; also called A50.VH1c; not shown: human IgG1 hinge-CH2-CH3 (Fc)
B10: PVRIG-A50-H2a (Fc fusion)
chain: B7 chain with G55A, S75T, N108S
notes: VHH-human IgG1 Fc format is stated for the parental VHH antibodies; not restated for the humanized variants; also called A50.VH2a; not shown: human IgG1 hinge-CH2-CH3 (Fc)
B11: PVRIG-A50-H1d (Fc fusion)
chain: B7 chain with N108S
notes: VHH-human IgG1 Fc format is stated for the parental VHH antibodies; not restated for the humanized variants; also called A50.VH1d; not shown: human IgG1 hinge-CH2-CH3 (Fc)
B12: PVRIG-A50-H1e (Fc fusion)
chain: B7 chain with G55A, N108S
notes: VHH-human IgG1 Fc format is stated for the parental VHH antibodies; not restated for the humanized variants; also called VH1e; not shown: human IgG1 hinge-CH2-CH3 (Fc)
B13: PVRIG-A50-H1a (Fc fusion)
chain: B7 chain with N54D
notes: VHH-human IgG1 Fc format is stated for the parental VHH antibodies; not restated for the humanized variants; also called A50.VH1a; not shown: human IgG1 hinge-CH2-CH3 (Fc)
B14: PVRIG-A118-H3 (Fc fusion)
chain: EVQLVESGGGLVQPGGSLRLSCAASETYFDLYVMGWYRQAPGKDRELVATITYTGSIKYVDSVKGRFTISRGDAKNSLYLQMNSLRAEDTAVYYCNADPSGLGRKVYWGQGTMVTVSS
notes: VHH-human IgG1 Fc format is stated for the parental VHH antibodies; not restated for the humanized variants; also called A118.VH3; not shown: human IgG1 hinge-CH2-CH3 (Fc)
B15: PVRIG-A118-H4 (Fc fusion)
chain: B14 chain with Y79S
notes: VHH-human IgG1 Fc format is stated for the parental VHH antibodies; not restated for the humanized variants; also called A118.VH4; not shown: human IgG1 hinge-CH2-CH3 (Fc)
B16: PVRIG-A118-H7 (Fc fusion)
chain: B14 chain with Y94F
notes: VHH-human IgG1 Fc format is stated for the parental VHH antibodies; not restated for the humanized variants; also called A118.VH7; not shown: human IgG1 hinge-CH2-CH3 (Fc)
B17: PVRIG-A118-H2 (Fc fusion)
chain: B14 chain with G72D, D73N
notes: VHH-human IgG1 Fc format is stated for the parental VHH antibodies; not restated for the humanized variants; also called A118.VH2; not shown: human IgG1 hinge-CH2-CH3 (Fc)
B18: PVRIG-A118 (Fc fusion)
chain: QVQLVESGGGLVQAGGSLRLSCAASETYFDLYVMGWYRQAPGKDRELVATITYTGSIKIVDSVKDRFTISRGDAKNTVSLQMSSLKPEDTAVYFCNADPSGLGRKVYWGQGTQVTVSS
notes: as for B6
B19: PVRIG-A118-H6 (Fc fusion)
chain: B14 chain with Y59I
notes: VHH-human IgG1 Fc format is stated for the parental VHH antibodies; not restated for the humanized variants; also called A118.VH6; not shown: human IgG1 hinge-CH2-CH3 (Fc)
B20: PVRIG-A118-H1 (Fc fusion)
chain: B14 chain with K58Y, G72D, D73N
notes: VHH-human IgG1 Fc format is stated for the parental VHH antibodies; not restated for the humanized variants; also called A118.VH1; not shown: human IgG1 hinge-CH2-CH3 (Fc)
B21: PVRIG-A118-H5 (Fc fusion)
chain: B14 chain with L78V
notes: VHH-human IgG1 Fc format is stated for the parental VHH antibodies; not restated for the humanized variants; also called A118.VH5; not shown: human IgG1 hinge-CH2-CH3 (Fc)

Each binder was assayed against T1, human PVRIG-mFc protein (Acro, PVG-H5253) (human, UniProt Q6DKI7 41-171, limits assumed) (assay: FACS blocking of PVRIG-mFc binding to CHO-K1-CD112 cells; competitor CD112).
T1 construct: extracellular domain; Bought protein; also called PVRIG-ECD-mFc; not shown: mouse Fc tag of the bought protein
T1 sequence (looked up): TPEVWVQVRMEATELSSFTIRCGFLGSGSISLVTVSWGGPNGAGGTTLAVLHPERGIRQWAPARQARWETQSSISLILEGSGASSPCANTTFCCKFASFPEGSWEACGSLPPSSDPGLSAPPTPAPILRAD
Outline: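 After a further 30 min at 4° C with Zombie violet-stained CHO-K1-CD112 cells, binding was detected with PE goat anti-mouse IgG Fc (1:250) as mean fluorescence intensity on a BD Canto II. IC50 and curve AUC, taken from four-parameter logistic fits in GraphPad Prism, were expressed relative to a reference antibody as percentages.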

Row | Binder | % IC50 to COM701-hIgG4 [%] | % IC50 to SO35-hIgG1 [%] | % IC50 to parental Ab [%] | % AUC to COM701-hIgG4 [%] | % AUC to SO35-hIgG1 [%] | % AUC to parental Ab [%]
1 | B1 | 109 | 92.3 | 104 |  |  | 
2 | B2 | 3060 | 2590 | 2930 | 3530 | 2040 | 3100
3 | B3 | 109 | 91.9 | 104 | 109 | 62.9 | 95.8
4 | B4 | 110 | 93.4 | 106 |  |  | 
5 | B5 | 110 | 93.2 | 105 | 112 | 64.6 | 98.4
6 | B6 | 104 | 88.3 | 100 | 114 | 65.6 | 100
7 | B7 | 101 | 78 | 86.1 | 115 | 67.8 | 94
8 | B8 | 117 | 90.6 | 100 | 122 | 72.1 | 100
9 | B9 | 122 | 94.7 | 105 | 132 | 77.7 | 108
10 | B10 | 118 | 91.7 | 101 | 112 | 66 | 91.6
11 | B11 | 115 | 89.1 | 98.4 | 121 | 71.1 | 98.7
12 | B12 | 130 | 101 | 111 | 126 | 74.1 | 103
13 | B13 | 120 | 93 | 103 | 125 | 73.5 | 102
14 | B14 | 146 | 98.8 | 104 | 127 | 65.8 | 107
15 | B15 | 141 | 95.4 | 100 | 116 | 60.4 | 97.9
16 | B16 | 143 | 97.1 | 102 | 124 | 64.3 | 104
17 | B17 | 161 | 109 | 115 | 142 | 73.7 | 120
18 | B18 | 141 | 95.3 | 100 | 119 | 61.7 | 100
19 | B19 | 145 | 97.8 | 103 | 119 | 61.7 | 100
20 | B20 | 141 | 95.4 | 100 | 120 | 62.4 | 101
21 | B21 | 144 | 97.4 | 102 | 127 | 66.1 | 107

From US20240343803A1 (SHANDONG SIMCERE BIOPHARMACEUTICAL, published 2024)
